Consider one molecule from patent publication US20200080117A1 (UNIVERSIDAD POLIT CNICA DE MADRID, published 2020).

The assay concerns the target T1, NifU (A. vinelandii NifU expressed in yeast strain SB33Y as SU9-NifU) (Azotobacter vinelandii, UniProt P05340 2-312).
T1 sequence: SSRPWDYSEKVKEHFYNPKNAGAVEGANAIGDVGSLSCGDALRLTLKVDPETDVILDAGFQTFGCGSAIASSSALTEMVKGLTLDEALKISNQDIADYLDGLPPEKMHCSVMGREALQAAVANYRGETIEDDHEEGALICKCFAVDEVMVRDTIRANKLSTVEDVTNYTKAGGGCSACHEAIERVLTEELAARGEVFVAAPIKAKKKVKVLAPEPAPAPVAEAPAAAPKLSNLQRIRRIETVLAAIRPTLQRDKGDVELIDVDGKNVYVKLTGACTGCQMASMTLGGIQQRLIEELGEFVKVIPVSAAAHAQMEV
Nature of the assay: co-purification on Strep-Tactin column from SB33Y extract, immunoblot.

B1: TS-NifB^USF (SU9-Twin-Strep-NifBMi purified from yeast strain SB33Y, co-expressed with NifU, NifS and FdxN-HA) (enzyme)
chain: not shown
notes: Same polypeptide as m1, purified from SB33Y; As isolated it carries about 6.1 Fe per monomer as [4Fe-4S] clusters and is active; The range 68-405 was derived from the printed N-terminus SSSAW; also called SU9-TS-NifBMi
With B1, the binding result was “no binding”.
